Measured values taken from patent US20030165527A1 (published 2003).

Molecular target: T1, collagen type I from calf skin (Boehringer) (calf, UniProt P02453 162-1217; P02465 80-1117)
T1 construct: Bought preparation coated on microtiter wells
Assay: not described; control for the collagen-Fn inhibition ELISA

T1 sequence (P02453 162-1217 limits assumed, chain 1 of 2): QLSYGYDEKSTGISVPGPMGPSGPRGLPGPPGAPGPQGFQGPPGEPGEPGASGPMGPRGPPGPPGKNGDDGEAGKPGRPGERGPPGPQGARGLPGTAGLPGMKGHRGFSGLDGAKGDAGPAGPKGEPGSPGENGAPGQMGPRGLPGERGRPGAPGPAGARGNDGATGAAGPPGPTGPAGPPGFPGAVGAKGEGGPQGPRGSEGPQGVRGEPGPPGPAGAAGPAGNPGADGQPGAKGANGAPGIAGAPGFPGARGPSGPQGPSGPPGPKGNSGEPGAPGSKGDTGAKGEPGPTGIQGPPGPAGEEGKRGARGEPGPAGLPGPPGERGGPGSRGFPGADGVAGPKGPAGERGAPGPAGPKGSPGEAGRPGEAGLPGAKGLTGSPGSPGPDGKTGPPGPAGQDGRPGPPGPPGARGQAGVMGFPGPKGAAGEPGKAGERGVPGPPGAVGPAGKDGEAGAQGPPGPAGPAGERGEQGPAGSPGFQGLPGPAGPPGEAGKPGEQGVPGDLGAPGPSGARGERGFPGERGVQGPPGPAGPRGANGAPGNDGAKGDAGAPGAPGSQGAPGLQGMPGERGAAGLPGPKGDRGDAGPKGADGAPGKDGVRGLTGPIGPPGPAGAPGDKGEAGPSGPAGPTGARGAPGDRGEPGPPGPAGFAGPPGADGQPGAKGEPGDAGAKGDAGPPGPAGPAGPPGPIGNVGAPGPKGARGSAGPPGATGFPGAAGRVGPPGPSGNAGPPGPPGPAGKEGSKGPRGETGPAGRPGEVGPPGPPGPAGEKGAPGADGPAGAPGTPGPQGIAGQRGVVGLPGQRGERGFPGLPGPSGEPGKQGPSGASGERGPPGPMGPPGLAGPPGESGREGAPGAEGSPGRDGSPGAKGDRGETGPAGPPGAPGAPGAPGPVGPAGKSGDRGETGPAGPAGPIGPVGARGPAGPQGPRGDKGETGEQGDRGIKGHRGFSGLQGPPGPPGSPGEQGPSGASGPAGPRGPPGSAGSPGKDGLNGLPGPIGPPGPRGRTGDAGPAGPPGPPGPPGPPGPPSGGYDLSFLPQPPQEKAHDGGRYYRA
T1 sequence (P02465 80-1117 limits assumed, chain 2 of 2): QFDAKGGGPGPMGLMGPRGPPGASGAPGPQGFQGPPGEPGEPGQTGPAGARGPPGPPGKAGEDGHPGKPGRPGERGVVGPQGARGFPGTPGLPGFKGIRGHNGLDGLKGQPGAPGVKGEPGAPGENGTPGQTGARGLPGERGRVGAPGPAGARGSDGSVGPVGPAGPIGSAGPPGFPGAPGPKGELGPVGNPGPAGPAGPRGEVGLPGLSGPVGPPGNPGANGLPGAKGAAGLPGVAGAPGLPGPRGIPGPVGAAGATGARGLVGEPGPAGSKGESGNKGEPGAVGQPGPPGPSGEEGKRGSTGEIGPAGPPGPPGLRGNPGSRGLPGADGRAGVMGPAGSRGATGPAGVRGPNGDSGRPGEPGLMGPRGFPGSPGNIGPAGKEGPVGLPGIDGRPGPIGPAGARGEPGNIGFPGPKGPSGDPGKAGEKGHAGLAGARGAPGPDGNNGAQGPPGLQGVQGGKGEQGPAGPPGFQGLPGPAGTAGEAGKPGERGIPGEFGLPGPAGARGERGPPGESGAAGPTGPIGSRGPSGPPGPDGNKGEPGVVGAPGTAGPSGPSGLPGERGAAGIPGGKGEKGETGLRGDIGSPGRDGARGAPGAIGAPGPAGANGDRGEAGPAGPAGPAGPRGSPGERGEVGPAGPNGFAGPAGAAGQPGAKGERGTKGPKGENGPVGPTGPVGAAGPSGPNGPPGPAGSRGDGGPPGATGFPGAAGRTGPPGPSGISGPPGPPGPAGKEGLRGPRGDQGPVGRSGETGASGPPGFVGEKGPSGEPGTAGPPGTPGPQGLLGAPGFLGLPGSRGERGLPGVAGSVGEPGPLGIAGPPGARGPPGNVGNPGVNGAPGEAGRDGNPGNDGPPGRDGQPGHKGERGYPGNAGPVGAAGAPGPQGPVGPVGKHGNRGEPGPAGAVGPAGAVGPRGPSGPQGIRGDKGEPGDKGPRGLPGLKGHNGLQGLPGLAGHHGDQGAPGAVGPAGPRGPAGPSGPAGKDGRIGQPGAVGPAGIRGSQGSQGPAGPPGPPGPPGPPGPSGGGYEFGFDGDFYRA

B1: recombinant fusion protein SFS-E (mature protein SFS of Streptococcus equi subsp. equi Bd 3221 with E-tag) (other)
chain: GAALVFGGLLGSLGGSSHQARPKEQPVSSIGDDDKSHKSSSDQPTNHQHQATSPSQPTAKSSGHHGNQPQSLSVNSQGNSSGQASEPQAIPNQHHQPQGKPQHLDLGKDNSSPQPQPKPQGNSPKLPEKGLNGENQKEPEQGERGLPGLNGENQKEPEQGERGEAGPPSTPNLEGNNRKNPLKGLDGENKPKEDLDGYNHGRRDGYRVGYEDGYGGKKHKGDYPKRFDESSPKEYNDYSQGYNDNYGNGNPD
notes: PCR fragment encoding the mature SFS was cloned into pG8SAET and purified from the periplasm on an anti-E tag column; both are treated as one molecule; also called recombinant protein SFS; not shown: 13 amino acid peptide tag (E-tag) encoded by vector pG8SAET
  binding result: no binding
